Data on one protein can be found in article PMC11811200.

Substrate in the data set: Oc1cc(O)c2c(c1)O[C@H](c1ccc(O)c(O)c1)[C@@H](O)C2
Kind of data set: purified protein. Particulars: 100 mM acetate buffer pH 5.0, 28 °C, 5-300 μM substrate.

What is called Km is the concentration of substrate that gives half-maximal velocity.

B1: SmLAC1 (recombinant MBP-SmLAC1) (Salvia miltiorrhiza) (protein)
chain: MERSLMFSAWVLALLVCLSSFASAAIVEHTFHVKNLTVNKLCRNQVITAVNGSLPGPTLRVHEGDTLVVHVFNKSPYNLTIHWHGIFQILSGWADGPEFATQCPIRPGQSYTYRFNITGQEGTLWWHAHVGWLRATVYGALVIRPRSGHSFPFPKPHREIPIVLGEWWNANVIDVENQALATGAAPNLSDAYTINGHPGNLYPCSSNDTFRLTVVHGKTYLLRIINAALNNQLFFKIANHNLTVVAVDASYTNPYTTDVVLVAPGQTTDVLLTADQTPARYYMAASAYQSAAGVPFDNTTTTGIVAYSGTTPSAPIMPLLPAFNDTPTAHRFFSNLTALVSSRFWAPVPRHVDERMFVTIGLGLSACDLPQCQGPFGLKLAASMNNASFQFPTRLSMLEAFFRGVGGIYTADFPDNPPVRFDYTNSSNSLNQALLNTTKSTKVKKVRFNSTVEVVLQNTAFLGVENHPIHLHGFNFYVLAQGFGNYNPALDTRKFNFVNPQERNTIGVPVGGWAVIRFRANNPGVWLIHCHLDVHLPWGLATAFVVENGPTPATTLPPPPADFPKC
On to B1, for which the Km came out at 21.2 µM.
